Measured values published in patent publication US20190316091A1.

Target: immune complexes of Dylight 650-labeled bovine serum albumin, polyclonal rabbit anti-BSA and human serum complement (bovine) (UniProt P02769)
Experiment: cell-based or functional assay

Sequence of UniProt P02769 (P02769 25-607, one chain of several): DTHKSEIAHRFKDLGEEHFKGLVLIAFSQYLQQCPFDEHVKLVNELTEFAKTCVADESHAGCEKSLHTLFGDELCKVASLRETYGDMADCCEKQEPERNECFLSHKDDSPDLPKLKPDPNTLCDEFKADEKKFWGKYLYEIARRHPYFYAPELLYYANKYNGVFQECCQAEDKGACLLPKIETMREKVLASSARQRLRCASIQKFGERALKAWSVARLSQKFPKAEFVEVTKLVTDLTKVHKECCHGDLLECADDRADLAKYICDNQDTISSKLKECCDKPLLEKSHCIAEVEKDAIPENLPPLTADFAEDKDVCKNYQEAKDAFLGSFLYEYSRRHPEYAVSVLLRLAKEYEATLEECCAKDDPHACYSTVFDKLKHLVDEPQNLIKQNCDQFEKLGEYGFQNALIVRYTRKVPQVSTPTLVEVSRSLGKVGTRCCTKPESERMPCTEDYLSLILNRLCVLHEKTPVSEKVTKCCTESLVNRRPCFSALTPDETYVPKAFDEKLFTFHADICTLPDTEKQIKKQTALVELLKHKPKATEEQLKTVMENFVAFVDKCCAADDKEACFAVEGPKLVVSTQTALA

complement receptor 1 (CR1) over-expressed on the surface of cultured erythroid cells (from UniProt P17927 42-2039)
uptake of labeled immune complexes by PMA-activated U937 macrophages in co-culture (flow cytometry fluorescence): 2 fold
